Biological target: Autotaxin (ENPP2, NPP2) (Homo sapiens) (UniProt Q13822)
Experiment: inhibition
Conditions: 2'-F pyrimidines, 2'-OH purines

GUACGAAGACGCAUCUCACNNNNNNNNNNNNNNNNNNNNNNNNNNNNNNNNNNNNNNNNGUUCCAUGUCCUGUUGCCACCC [40N RNA pool]
IC50: > 1 µM

CGGAUACGUCUCACUUCGUCNNNNNNNNNNNNNNNNNNNNNNNNNNNNNNCAGAGCGUUUAGAGUGCGGUCCC [30N RNA pool]
IC50: > 1 µM
